Reference: US20250043302A1, “MUTATED HYDROXYPHENYLPYRUVATE DIOXYGENASE POLYPEPTIDE, AND CODING GENE AND USE THEREOF” (BEIJING DABEINONG BIOTECHNOLOGY CO., LTD., priority 2021, published 2025)
Numbering of substitutions follows the chain as printed. Names and notes keep the numbering of the source.

B1: GsHPPD-02: nucleotide sequence encoding wild-type Gossypium hirsutum HPPD; vector DBN11738 (nucleic acid)
DNA: ATGGTTCAAACAAATCAATCTGGTTCTGGGAATGATTTCAAGCTGGTTGGTTTCTCAAATTTTGTGCGTAGCAATCCCAAATCAGACCGCTTCACGGTCAAGAGATTCCACCACATTGAATTTTGGTGCACTGATGCCACTAATGTGGCGAGGAGGTTTTCATGGGGTTTAGGGATGCAGTTCGTCGCCAAGAGTGACCTCTCCACAGGAAATTTGACGCATGCAAGCTACCTGCTGCGGAGCCGCGACTTGAATTTCCTGTTTACAGCACCATATTCACCCAGTATTGCAGTTGCTCAAAACCTTTCGCCACAAAGCACTGCTTCCATACCTTCATTTGATCACTCGCTTTGTCGGTCCTTTGCTGCAACACATGGACTTGGCGTCAGAGCAATTGCCATCGAGGTGGACGACGCCGAAACTGCCTTCACCACGAGCGTGACACATGGCGCGCTCCCTTTTTGTCCACCAACACCACTAGGAGATGTGGCTACAATTGCTGAAGTTAAATTATATGGTGATGTTGTGCTCAGATATGTTTCTTACACCACAACCATCAACTCCGACCATGATTTTCTGCCTGGTTTTGAGAAGATTGAAGATACTCTATCGTATCCTTTGGATTATGGCCTGCGTCGGCTCGATCATGCTGTTGGCAACGTACCTGAATTAGGTCCTGCTGTATCTTATGTGAAATCTTTTACTGGGTTCCATGAGTTTGCAGAGTTCACCGCTGAGGATGTAGGAACAAGTGAATCTGGGCTGAACTCAGTTGTTTTGGCCAACAATGAGGAAATGGTCCTCTTACCAATGAACGAGCCGGTGTTCGGCACTAAGCGCAAATCTCAAATACAGACCTACTTGGAGCACAATGAAGGAGCTGGTGTGCAGCACCTCGCCCTCGTCTCGGAGGACATCTTCAAAACTTTAAGGGAGATGAGGAAACGATCCTTTGTGGGAGGATTTGAATTCATGCCTTCTCCGCCGCCGACATACTACAAGAAGCTCAAGCAGCGCGCGGGGGACATTTTGTCTGATGAGCAGATCAAGGAGTGTGAAGAGCTTGGGATTCTTGTTGATAGAGATGATCAAGGAACGCTTCTGCAGATATTTACCAAGCCCGTCGGCGACCGGCCTACTATATTCATTGAGATCATCCAGAGAATTGGTTGCATGGTGAAGGATGAAGAAGGGAAACAGTACCAGAAGGGCGGCTGCGGCGGGTTTGGAAAAGGAAACTTCAGTGAGCTGTTTAAAAGTATAGAGGAGTATGAAAAGAGCTTGGAAGCAAAACAATCACAAAATCCATGA
modifications: GsHPPD-02 Nucleotide Sequence
notes: vector DBN11738
B2: GsHPPDm-F372A-F383W-02: nucleotide sequence encoding Gossypium hirsutum HPPD with F372A+F383W; vector DBN11741 (nucleic acid)
DNA: B1 DNA with T1111G, T1112C, T1113C, T1145G, C1146G
modifications: GsHPPDm-F372A-F383W-02 Nucleotide Sequence
notes: vector DBN11741

Assays:
Type in all cases: in vivo
[1] = tested on: Arabidopsis thaliana T1 plants; assay: Topramezone tolerance of transgenic Arabidopsis thaliana T1 plants (spray, bleached leaf area grade, damage score); conditions: 7 DAT, Table 4; for Classification and statistics of the grade of pesticide damage: Grade 0 / Classification and statistics of the grade of pesticide damage: Grade 1 / Classification and statistics of the grade of pesticide damage: Grade 2 / Classification and statistics of the grade of pesticide damage: Grade 3: number of plants; for Scores: pesticide damage score 0-100
How it was run: (§1)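 T1 transformants selected by glufosinate; 18-day-old plants, with empty-vector and wild-type controls, sprayed with topramezone (25–200 g ai/ha), isoxaflutole (35–280 g ai/ha) or mesotrione (52.5–420 g ai/ha), water as 0×. Bleached leaf area fraction scored at 7 DAT as grades 0–3.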

[2] = tested on: Arabidopsis thaliana T1 plants; assay: Isoxaflutole tolerance of transgenic Arabidopsis thaliana T1 plants (spray, bleached leaf area grade, damage score); set-up: Scores (pesticide damage): scale not given here; conditions: spray, Arabidopsis thaliana T1 plants; for Classification and statistics of the grade of pesticide damage: Grade 0 (number of plants) / Classification and statistics of the grade of pesticide damage: Grade 1 (number of plants) / Classification and statistics of the grade of pesticide damage: Grade 2 (number of plants) / Classification and statistics of the grade of pesticide damage: Grade 3 (number of plants): 16 plants
How it was run: as §1

[3] = tested on: Arabidopsis thaliana T1 plants; assay: Mesotrione tolerance of transgenic Arabidopsis thaliana T1 plants (spray, bleached leaf area grade, damage score); set-up: Scores: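 damage score 0-100 computed as Σ(N×S)/(T×M)×100 over grades 0-3 with higher meaning more damage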; conditions: Arabidopsis thaliana T1 plants; for Grade 0 (classification and statistics of the grade of pesticide damage; number of plants) / Grade 1 (classification and statistics of the grade of pesticide damage; number of plants) / Grade 2 (classification and statistics of the grade of pesticide damage; number of plants) / Grade 3 (classification and statistics of the grade of pesticide damage; number of plants): 16 plants
How it was run: as §1

[4] = isoxaflutole 35 g ai/ha (0.5x field concentration)
[5] = isoxaflutole 70 g ai/ha (1x field concentration)

| Molecule | Classification and statistics of the grade of pesticide damage: Grade 0 ([1]; topramezone 25 g ai/ha (1×)) | Classification and statistics of the grade of pesticide damage: Grade 1 ([1]; topramezone 25 g ai/ha (1×)) | Classification and statistics of the grade of pesticide damage: Grade 2 ([1]; topramezone 25 g ai/ha (1×)) | Classification and statistics of the grade of pesticide damage: Grade 3 ([1]; topramezone 25 g ai/ha (1×)) | Classification and statistics of the grade of pesticide damage: Grade 0 ([1]; topramezone 100 g ai/ha (4×)) | Classification and statistics of the grade of pesticide damage: Grade 1 ([1]; topramezone 100 g ai/ha (4×)) | Classification and statistics of the grade of pesticide damage: Grade 2 ([1]; topramezone 100 g ai/ha (4×)) | Classification and statistics of the grade of pesticide damage: Grade 3 ([1]; topramezone 100 g ai/ha (4×)) | Scores ([1]; topramezone 25 g ai/ha (1×)) | Scores ([1]; topramezone 100 g ai/ha (4×)) | Resistance evaluation ([1]; topramezone 25 g ai/ha (1×)) | Resistance evaluation ([1]; topramezone 100 g ai/ha (4×)) | Resistance evaluation [2, 4] | Scores (pesticide damage) [2, 4] | Classification and statistics of the grade of pesticide damage: Grade 0 (number of plants) [2, 4] | Classification and statistics of the grade of pesticide damage: Grade 1 (number of plants) [2, 4] | Classification and statistics of the grade of pesticide damage: Grade 2 (number of plants) [2, 4] | Classification and statistics of the grade of pesticide damage: Grade 3 (number of plants) [2, 4] | Resistance evaluation [2, 5] | Scores (pesticide damage) [2, 5] | other results |
| --- | --- | --- | --- | --- | --- | --- | --- | --- | --- | --- | --- | --- | --- | --- | --- | --- | --- | --- | --- | --- | --- |
| B1 | 0 | 0 | 0 | 16 | 0 | 0 | 0 | 16 | 100 | 100 | non-resistant (non-resistant plants (scores 68-100)) | non-resistant (non-resistant plants (scores 68-100)) | Non-resistant | 100 | 0 | 0 | 0 | 16 | Non-resistant | 100 | Classification and statistics of the grade of pesticide damage: Grade 0 (number of plants) [2, 5]: 0; Classification and statistics of the grade of pesticide damage: Grade 1 (number of plants) [2, 5]: 0; Classification and statistics of the grade of pesticide damage: Grade 2 (number of plants) [2, 5]: 0; Classification and statistics of the grade of pesticide damage: Grade 3 (number of plants) [2, 5]: 16; Resistance evaluation ([3]; mesotrione 52.5 g ai/ha): Non-resistant; Scores ([3]; mesotrione 52.5 g ai/ha): 100; Grade 0 (classification and statistics of the grade of pesticide damage; number of plants) ([3]; mesotrione 52.5 g ai/ha): 0; Grade 1 (classification and statistics of the grade of pesticide damage; number of plants) ([3]; mesotrione 52.5 g ai/ha): 0; Grade 2 (classification and statistics of the grade of pesticide damage; number of plants) ([3]; mesotrione 52.5 g ai/ha): 0; Grade 3 (classification and statistics of the grade of pesticide damage; number of plants) ([3]; mesotrione 52.5 g ai/ha): 16; Resistance evaluation ([3]; mesotrione 105 g ai/ha): Non-resistant; Scores ([3]; mesotrione 105 g ai/ha): 100; Grade 0 (classification and statistics of the grade of pesticide damage; number of plants) ([3]; mesotrione 105 g ai/ha): 0; Grade 1 (classification and statistics of the grade of pesticide damage; number of plants) ([3]; mesotrione 105 g ai/ha): 0; Grade 2 (classification and statistics of the grade of pesticide damage; number of plants) ([3]; mesotrione 105 g ai/ha): 0; Grade 3 (classification and statistics of the grade of pesticide damage; number of plants) ([3]; mesotrione 105 g ai/ha): 16 |
| B2 | 16 | 0 | 0 | 0 | 5 | 7 | 2 | 2 | 0 | 35 | highly | poorly | Highly | 15 | 9 | 7 | 0 | 0 | Poorly | 48 | Classification and statistics of the grade of pesticide damage: Grade 0 (number of plants) [2, 5]: 3; Classification and statistics of the grade of pesticide damage: Grade 1 (number of plants) [2, 5]: 5; Classification and statistics of the grade of pesticide damage: Grade 2 (number of plants) [2, 5]: 6; Classification and statistics of the grade of pesticide damage: Grade 3 (number of plants) [2, 5]: 2; Resistance evaluation ([3]; mesotrione 52.5 g ai/ha): Moderately; Scores ([3]; mesotrione 52.5 g ai/ha): 33; Grade 0 (classification and statistics of the grade of pesticide damage; number of plants) ([3]; mesotrione 52.5 g ai/ha): 3; Grade 1 (classification and statistics of the grade of pesticide damage; number of plants) ([3]; mesotrione 52.5 g ai/ha): 10; Grade 2 (classification and statistics of the grade of pesticide damage; number of plants) ([3]; mesotrione 52.5 g ai/ha): 3; Grade 3 (classification and statistics of the grade of pesticide damage; number of plants) ([3]; mesotrione 52.5 g ai/ha): 0; Resistance evaluation ([3]; mesotrione 105 g ai/ha): Non-resistant; Scores ([3]; mesotrione 105 g ai/ha): 77; Grade 0 (classification and statistics of the grade of pesticide damage; number of plants) ([3]; mesotrione 105 g ai/ha): 0; Grade 1 (classification and statistics of the grade of pesticide damage; number of plants) ([3]; mesotrione 105 g ai/ha): 0; Grade 2 (classification and statistics of the grade of pesticide damage; number of plants) ([3]; mesotrione 105 g ai/ha): 11; Grade 3 (classification and statistics of the grade of pesticide damage; number of plants) ([3]; mesotrione 105 g ai/ha): 5 |
